In publication PMC8024369:
Where “and” joins values, the source holds several entries; their conditions need not be identical. Equal entries are not always repeated.

Experiments:
[1] = target: rationally optimised SUWA (N22E/H86K mutant of SUWA, super WA20); experiment: SEC-MALS; Superdex 75 Increase 10/300 GL, 20 °C, 20 mM HEPES pH 7.5, 150 mM NaCl, 5% glycerol; oligomeric number from the mass of each peak and the theoretical mass of the monomer
[2] = target: rationally optimised WA20 (N22A/H86K mutant of the de novo protein WA20); experiment: as above

Row | Substance | mass fraction of peak (i), dimer [1] | mass fraction of peak (ii), tetramer [1] | mass fraction of peak (iii), hexamer [1] | mass fraction of peak (iv), higher oligomers [1] | mass fraction of peak (i), dimer [2] | mass fraction of peak (ii), tetramer [2] | mass fraction of peak (iii), hexamer [2] | stoichiometry N [2]
1 | rationally optimised SUWA (N22E/H86K mutant of SUWA, super WA20) | 64% | 18% | 7% | 11% | – | – | – | –
2 | rationally optimised WA20 (N22A/H86K mutant of the de novo protein WA20) | – | – | – | – | 77% | 21% | 2% | 2 mer and 4 mer and 6 mer
